# Substitutions are numbered along the chain they refer to.
# B1: 90 bp dsDNA (90-mer) (dsDNA)
# DNA 1: GATGTTCTGCTGGATATGCACTTTTCCGGGCTGACGTACACCGTGCTCAGCCTGTTTTTCAGCGATCCGGATATGCATCCGCTGGATTTC
# DNA 2: GAAATCCAGCGGATGCATATCCGGATCGCTGAAAAACAGGCTGAGCACGGTGTACGTCAGCCCGGAAAAGTGCATATCCAGCAGAACATC
# Assays:
# Conditions in all cases: protein: recombinant; tags: GFP-GST (N-term); label: Atto647N 5' on strand 1; blunt
# [1] = molecular target: T1, Rad54 S816D/S817D (Saccharomyces cerevisiae, UniProt P32863 1-898, S816D;S817D); assay: EMSA; apparent Kd; Hill fit; 3 mM Mg2+; p = 0.008 vs WT; EMSA: 35 mM Tris-Cl pH 7.5, 3 mM MgCl2, 50 mM KCl, 1 mM DTT, 10% glycerol, 10 nM DNA, 30 C, 5 min, 8% native PAGE in 0.5x TBE; DNA curtains: HR buffer (composition not given), 10 nM GFP-Rad54, flow 0.2 mL/min
# T1 sequence: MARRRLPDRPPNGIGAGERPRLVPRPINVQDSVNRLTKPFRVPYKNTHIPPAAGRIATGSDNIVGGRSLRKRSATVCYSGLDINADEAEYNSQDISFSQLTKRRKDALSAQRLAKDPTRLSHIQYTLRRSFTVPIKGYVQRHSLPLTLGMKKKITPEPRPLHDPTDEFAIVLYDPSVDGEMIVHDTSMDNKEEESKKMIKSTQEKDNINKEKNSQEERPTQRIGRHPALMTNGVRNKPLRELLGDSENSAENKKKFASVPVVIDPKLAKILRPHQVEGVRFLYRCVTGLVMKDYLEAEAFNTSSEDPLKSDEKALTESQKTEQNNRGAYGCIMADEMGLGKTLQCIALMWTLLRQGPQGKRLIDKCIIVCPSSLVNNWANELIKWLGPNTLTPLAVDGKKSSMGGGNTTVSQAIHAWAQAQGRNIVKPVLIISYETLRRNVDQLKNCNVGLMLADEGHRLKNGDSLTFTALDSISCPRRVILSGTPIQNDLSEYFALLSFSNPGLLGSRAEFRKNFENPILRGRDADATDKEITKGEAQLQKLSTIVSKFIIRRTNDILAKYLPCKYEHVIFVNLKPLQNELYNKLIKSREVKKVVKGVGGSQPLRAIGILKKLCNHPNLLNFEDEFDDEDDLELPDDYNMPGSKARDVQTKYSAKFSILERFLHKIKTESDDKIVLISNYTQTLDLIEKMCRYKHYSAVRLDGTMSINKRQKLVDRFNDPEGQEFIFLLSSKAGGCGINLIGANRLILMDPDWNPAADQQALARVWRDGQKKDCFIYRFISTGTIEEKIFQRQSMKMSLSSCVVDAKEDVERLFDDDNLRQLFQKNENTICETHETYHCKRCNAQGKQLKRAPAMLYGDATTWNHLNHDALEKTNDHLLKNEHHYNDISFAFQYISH
# [2] = molecular target: T2, Rad54 D525S/D527S/S816D/S817D (Saccharomyces cerevisiae, UniProt P32863 1-898, D525S;D527S;S816D;S817D); assay: EMSA; apparent Kd; Hill fit; 3 mM Mg2+; EMSA: 35 mM Tris-Cl pH 7.5, 3 mM MgCl2, 50 mM KCl, 1 mM DTT, 10% glycerol, 10 nM DNA, 30 C, 5 min, 8% native PAGE in 0.5x TBE; DNA curtains: HR buffer (composition not given), 10 nM GFP-Rad54, flow 0.2 mL/min
# T2 sequence: T1 sequence with D525S, D527S
# [3] = molecular target: T3, Rad54 S816A/S817A (Saccharomyces cerevisiae, UniProt P32863 1-898, S816A;S817A); assay: EMSA; 3 mM Mg2+; Kd slightly above WT, not significant; value only in figure; EMSA: 35 mM Tris-Cl pH 7.5, 3 mM MgCl2, 50 mM KCl, 1 mM DTT, 10% glycerol, 10 nM DNA, 30 C, 5 min, 8% native PAGE in 0.5x TBE; DNA curtains: HR buffer (composition not given), 10 nM GFP-Rad54, flow 0.2 mL/min
# T3 sequence: T1 sequence with D816A, D817A
binder,measurement,setting,value
B1,Kd,[1],41 nM
same,Kd,[2],~18 nM
same,binding result,[3],binds

# Source: article PMC13138755, “Potential Rad54 separation of function mutation highlights unique roles during homologous recombination”
